Results taken from US20180155451A1 (published 2018).

T1: FcγRIIa R (human FcγRIIa, allotype R, Arg at position 131), extracellular domain with C-terminal His tag (human, UniProt P12318 34-217)
T1 construct: extracellular domain; expressed in FreeStyle293 cells; analyte in Biacore; also called 2aR; FcgRIIa R
T1 sequence (looked up): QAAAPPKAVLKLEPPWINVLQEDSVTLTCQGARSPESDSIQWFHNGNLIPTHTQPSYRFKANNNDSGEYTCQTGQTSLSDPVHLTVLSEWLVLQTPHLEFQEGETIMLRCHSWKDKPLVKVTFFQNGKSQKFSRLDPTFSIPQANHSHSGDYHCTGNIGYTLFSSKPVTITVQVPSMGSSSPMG

B1: GpH7-A5/GpH7-B3 variant H268_18N/GpL16-k0 (antibody, human IgG1, kappa)
heavy 1: not shown
heavy 2: not shown
light: DIVMTQSPLSLPVTPGEPASISCQASESLVHSNRNTYLHWYLQKPGQSPQLLIYKVSNRFSGVPDRFSGSGSGTDFTLKISRVEAEDVGVYYCSQNTHVPPTFGQGTKVEIERTVAAPSVFIFPPSDEQLKSGTASVVCLLNNFYPREAKVQWKVDNALQSGNSQESVTEQDSKDSTYSLSSTLTLSKADYEKHKVYACEVTHQGLSSPVTKSFNRGEC
notes: also called He Ab H268_18N
B2: GpH7-A5/GpH7-B3 variant I332_01G/GpL16-k0 (antibody, human IgG1, kappa)
heavy 1: not shown
heavy 2: not shown
light: DIVMTQSPLSLPVTPGEPASISCQASESLVHSNRNTYLHWYLQKPGQSPQLLIYKVSNRFSGVPDRFSGSGSGTDFTLKISRVEAEDVGVYYCSQNTHVPPTFGQGTKVEIERTVAAPSVFIFPPSDEQLKSGTASVVCLLNNFYPREAKVQWKVDNALQSGNSQESVTEQDSKDSTYSLSSTLTLSKADYEKHKVYACEVTHQGLSSPVTKSFNRGEC
notes: also called He Ab I332_01G
B3: GpH7-A5/GpH7-B3 variant I332_06M/GpL16-k0 (antibody, human IgG1, kappa)
heavy 1: not shown
heavy 2: not shown
light: DIVMTQSPLSLPVTPGEPASISCQASESLVHSNRNTYLHWYLQKPGQSPQLLIYKVSNRFSGVPDRFSGSGSGTDFTLKISRVEAEDVGVYYCSQNTHVPPTFGQGTKVEIERTVAAPSVFIFPPSDEQLKSGTASVVCLLNNFYPREAKVQWKVDNALQSGNSQESVTEQDSKDSTYSLSSTLTLSKADYEKHKVYACEVTHQGLSSPVTKSFNRGEC
notes: also called He Ab I332_06M
B4: GpH7-B3 variant Y296_13S/GpL16-k0 (antibody, human IgG1, kappa)
heavy: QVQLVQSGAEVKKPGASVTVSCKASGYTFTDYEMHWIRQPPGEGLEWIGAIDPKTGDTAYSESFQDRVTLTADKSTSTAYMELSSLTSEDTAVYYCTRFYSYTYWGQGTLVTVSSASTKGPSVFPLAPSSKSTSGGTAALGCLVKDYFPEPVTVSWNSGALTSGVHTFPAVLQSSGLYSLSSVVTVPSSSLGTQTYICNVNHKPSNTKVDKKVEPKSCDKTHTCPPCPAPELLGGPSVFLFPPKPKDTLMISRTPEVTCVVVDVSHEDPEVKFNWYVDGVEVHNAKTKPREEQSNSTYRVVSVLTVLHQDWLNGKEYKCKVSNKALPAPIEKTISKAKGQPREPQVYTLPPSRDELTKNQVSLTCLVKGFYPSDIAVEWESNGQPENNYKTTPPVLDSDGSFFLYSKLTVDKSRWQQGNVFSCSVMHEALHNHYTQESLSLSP
light: DIVMTQSPLSLPVTPGEPASISCQASESLVHSNRNTYLHWYLQKPGQSPQLLIYKVSNRFSGVPDRFSGSGSGTDFTLKISRVEAEDVGVYYCSQNTHVPPTFGQGTKVEIERTVAAPSVFIFPPSDEQLKSGTASVVCLLNNFYPREAKVQWKVDNALQSGNSQESVTEQDSKDSTYSLSSTLTLSKADYEKHKVYACEVTHQGLSSPVTKSFNRGEC
notes: homodimerized antibody, mutation in both H chains; also called Ho Ab
B5: GpH7-B3 variant Y296_14T/GpL16-k0 (antibody, human IgG1, kappa)
heavy: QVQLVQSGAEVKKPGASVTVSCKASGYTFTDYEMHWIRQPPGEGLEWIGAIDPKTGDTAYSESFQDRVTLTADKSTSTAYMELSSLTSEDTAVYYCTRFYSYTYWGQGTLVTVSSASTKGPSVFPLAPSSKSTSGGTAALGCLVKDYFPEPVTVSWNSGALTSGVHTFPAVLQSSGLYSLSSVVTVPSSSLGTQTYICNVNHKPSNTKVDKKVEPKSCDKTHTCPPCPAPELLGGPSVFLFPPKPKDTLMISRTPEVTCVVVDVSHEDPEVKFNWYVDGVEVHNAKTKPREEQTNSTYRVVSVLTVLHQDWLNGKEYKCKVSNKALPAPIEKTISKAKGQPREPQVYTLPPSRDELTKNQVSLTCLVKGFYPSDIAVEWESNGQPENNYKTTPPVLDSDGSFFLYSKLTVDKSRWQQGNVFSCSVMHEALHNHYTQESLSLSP
light: DIVMTQSPLSLPVTPGEPASISCQASESLVHSNRNTYLHWYLQKPGQSPQLLIYKVSNRFSGVPDRFSGSGSGTDFTLKISRVEAEDVGVYYCSQNTHVPPTFGQGTKVEIERTVAAPSVFIFPPSDEQLKSGTASVVCLLNNFYPREAKVQWKVDNALQSGNSQESVTEQDSKDSTYSLSSTLTLSKADYEKHKVYACEVTHQGLSSPVTKSFNRGEC
notes: as for B4
B6: GpH7-B3 variant Y296_16H/GpL16-k0 (antibody, human IgG1, kappa)
heavy: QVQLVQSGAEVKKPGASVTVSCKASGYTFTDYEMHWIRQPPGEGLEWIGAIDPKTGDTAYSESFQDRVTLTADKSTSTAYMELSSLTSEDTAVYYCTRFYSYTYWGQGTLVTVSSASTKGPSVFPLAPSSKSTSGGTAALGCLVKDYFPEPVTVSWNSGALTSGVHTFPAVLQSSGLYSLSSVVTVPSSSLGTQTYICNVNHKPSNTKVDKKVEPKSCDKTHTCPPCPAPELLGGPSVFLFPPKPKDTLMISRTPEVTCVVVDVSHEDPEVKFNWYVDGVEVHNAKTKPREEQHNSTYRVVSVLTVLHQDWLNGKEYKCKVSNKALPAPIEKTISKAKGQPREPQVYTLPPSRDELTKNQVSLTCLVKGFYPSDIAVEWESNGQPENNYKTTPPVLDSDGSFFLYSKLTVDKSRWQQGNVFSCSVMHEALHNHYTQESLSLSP
light: DIVMTQSPLSLPVTPGEPASISCQASESLVHSNRNTYLHWYLQKPGQSPQLLIYKVSNRFSGVPDRFSGSGSGTDFTLKISRVEAEDVGVYYCSQNTHVPPTFGQGTKVEIERTVAAPSVFIFPPSDEQLKSGTASVVCLLNNFYPREAKVQWKVDNALQSGNSQESVTEQDSKDSTYSLSSTLTLSKADYEKHKVYACEVTHQGLSSPVTKSFNRGEC
notes: as for B4
B7: GpH7-B3 variant Y296_18N/GpL16-k0 (antibody, human IgG1, kappa)
heavy: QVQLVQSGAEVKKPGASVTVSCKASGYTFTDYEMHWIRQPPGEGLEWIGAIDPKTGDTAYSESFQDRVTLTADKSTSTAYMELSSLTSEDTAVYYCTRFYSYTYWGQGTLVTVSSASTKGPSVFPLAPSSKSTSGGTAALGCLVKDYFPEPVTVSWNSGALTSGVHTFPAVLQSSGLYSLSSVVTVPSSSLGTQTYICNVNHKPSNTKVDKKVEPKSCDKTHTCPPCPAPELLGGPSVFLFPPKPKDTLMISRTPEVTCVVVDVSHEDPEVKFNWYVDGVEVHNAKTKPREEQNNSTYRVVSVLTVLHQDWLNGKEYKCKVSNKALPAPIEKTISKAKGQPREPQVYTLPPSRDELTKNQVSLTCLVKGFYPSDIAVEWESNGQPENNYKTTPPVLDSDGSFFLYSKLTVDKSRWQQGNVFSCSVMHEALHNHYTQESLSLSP
light: DIVMTQSPLSLPVTPGEPASISCQASESLVHSNRNTYLHWYLQKPGQSPQLLIYKVSNRFSGVPDRFSGSGSGTDFTLKISRVEAEDVGVYYCSQNTHVPPTFGQGTKVEIERTVAAPSVFIFPPSDEQLKSGTASVVCLLNNFYPREAKVQWKVDNALQSGNSQESVTEQDSKDSTYSLSSTLTLSKADYEKHKVYACEVTHQGLSSPVTKSFNRGEC
notes: as for B4
B8: GpH7-B3 variant Y296_19Q/GpL16-k0 (antibody, human IgG1, kappa)
heavy: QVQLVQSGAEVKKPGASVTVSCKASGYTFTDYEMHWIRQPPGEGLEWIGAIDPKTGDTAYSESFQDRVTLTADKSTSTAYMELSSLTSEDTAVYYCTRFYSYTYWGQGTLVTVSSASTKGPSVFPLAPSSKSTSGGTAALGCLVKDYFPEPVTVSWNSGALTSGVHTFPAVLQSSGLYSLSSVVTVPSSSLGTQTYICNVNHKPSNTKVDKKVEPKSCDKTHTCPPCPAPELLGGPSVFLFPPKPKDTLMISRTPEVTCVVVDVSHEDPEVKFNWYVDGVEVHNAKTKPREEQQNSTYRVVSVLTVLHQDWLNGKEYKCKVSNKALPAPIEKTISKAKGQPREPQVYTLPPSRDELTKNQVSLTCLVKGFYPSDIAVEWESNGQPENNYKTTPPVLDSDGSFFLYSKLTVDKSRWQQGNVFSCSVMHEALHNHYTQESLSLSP
light: DIVMTQSPLSLPVTPGEPASISCQASESLVHSNRNTYLHWYLQKPGQSPQLLIYKVSNRFSGVPDRFSGSGSGTDFTLKISRVEAEDVGVYYCSQNTHVPPTFGQGTKVEIERTVAAPSVFIFPPSDEQLKSGTASVVCLLNNFYPREAKVQWKVDNALQSGNSQESVTEQDSKDSTYSLSSTLTLSKADYEKHKVYACEVTHQGLSSPVTKSFNRGEC
notes: as for B4
B9: GpH7-B3 variant Y296_20W/GpL16-k0 (antibody, human IgG1, kappa)
heavy: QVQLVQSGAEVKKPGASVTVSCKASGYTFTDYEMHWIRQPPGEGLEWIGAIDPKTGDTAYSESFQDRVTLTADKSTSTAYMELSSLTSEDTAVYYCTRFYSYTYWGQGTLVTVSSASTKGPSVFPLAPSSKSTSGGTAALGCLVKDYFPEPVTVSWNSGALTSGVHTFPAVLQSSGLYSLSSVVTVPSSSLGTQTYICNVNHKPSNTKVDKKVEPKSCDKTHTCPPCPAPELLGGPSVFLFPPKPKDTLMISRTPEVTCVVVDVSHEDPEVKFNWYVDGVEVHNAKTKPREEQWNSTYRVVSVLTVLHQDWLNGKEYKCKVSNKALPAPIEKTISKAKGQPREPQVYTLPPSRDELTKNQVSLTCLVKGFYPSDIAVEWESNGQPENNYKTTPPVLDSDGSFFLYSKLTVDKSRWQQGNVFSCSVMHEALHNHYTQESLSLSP
light: DIVMTQSPLSLPVTPGEPASISCQASESLVHSNRNTYLHWYLQKPGQSPQLLIYKVSNRFSGVPDRFSGSGSGTDFTLKISRVEAEDVGVYYCSQNTHVPPTFGQGTKVEIERTVAAPSVFIFPPSDEQLKSGTASVVCLLNNFYPREAKVQWKVDNALQSGNSQESVTEQDSKDSTYSLSSTLTLSKADYEKHKVYACEVTHQGLSSPVTKSFNRGEC
notes: as for B4
B10: GpH7-B3 variant Y300_18N/GpL16-k0 (antibody, human IgG1, kappa)
heavy: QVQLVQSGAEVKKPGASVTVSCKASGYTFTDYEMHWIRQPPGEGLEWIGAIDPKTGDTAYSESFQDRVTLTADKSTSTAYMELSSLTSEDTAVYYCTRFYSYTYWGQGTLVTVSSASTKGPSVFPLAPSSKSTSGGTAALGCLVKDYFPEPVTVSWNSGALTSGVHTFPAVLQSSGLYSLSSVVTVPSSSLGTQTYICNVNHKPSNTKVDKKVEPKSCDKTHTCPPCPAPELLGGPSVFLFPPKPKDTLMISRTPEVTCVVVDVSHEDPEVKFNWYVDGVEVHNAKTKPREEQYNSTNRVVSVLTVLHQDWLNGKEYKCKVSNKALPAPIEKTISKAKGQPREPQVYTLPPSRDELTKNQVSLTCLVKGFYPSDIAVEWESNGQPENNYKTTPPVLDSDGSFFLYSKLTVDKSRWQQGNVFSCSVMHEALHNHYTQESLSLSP
light: DIVMTQSPLSLPVTPGEPASISCQASESLVHSNRNTYLHWYLQKPGQSPQLLIYKVSNRFSGVPDRFSGSGSGTDFTLKISRVEAEDVGVYYCSQNTHVPPTFGQGTKVEIERTVAAPSVFIFPPSDEQLKSGTASVVCLLNNFYPREAKVQWKVDNALQSGNSQESVTEQDSKDSTYSLSSTLTLSKADYEKHKVYACEVTHQGLSSPVTKSFNRGEC
notes: as for B4

Target: T2, FcγRIIIa extracellular domain with C-terminal His tag (human, UniProt P08637 17-208)
T2 construct: extracellular domain; also called FcgRIIIa; 3a; not shown: His tag at the C terminus
Test: SPR relative binding; GpH7-A5/GpH7-B3/GpL16-k0 = 100
Experimental: (§1) Analysis of interaction between objective antibody and the FcγR was carried out using Biacore T100 (GE Healthcare). HBS-EP+ (GE Healthcare) was used as the running buffer, and the measurement temperature was set to 25° C. Chips produced by immobilizing the antigen peptide by the amine coupling method to a Series S Sencor Chip CM5 (GE Healthcare), or alternatively, chips produced by allowing preliminarily biotinylated antigen peptides to interact with and immobilize onto a Series S Sensor Chip SA (certified) (GE Healthcare) were used. Antibodies of interest were captured onto an antigen peptide-immobilized chip, and allowed to interact to each FcγR diluted with running buffer. To regenerate and repeatedly use the chip, the antibodies captured on the chip were washed off by reacting 10 mM glycine-HCl, pH 1.5.
(§2) The FcγR-binding activity of each antibody was assessed primarily using as an indicator the FcγR-binding activity and dissociation constant for FcγR.

T2 sequence (P08637 17-208): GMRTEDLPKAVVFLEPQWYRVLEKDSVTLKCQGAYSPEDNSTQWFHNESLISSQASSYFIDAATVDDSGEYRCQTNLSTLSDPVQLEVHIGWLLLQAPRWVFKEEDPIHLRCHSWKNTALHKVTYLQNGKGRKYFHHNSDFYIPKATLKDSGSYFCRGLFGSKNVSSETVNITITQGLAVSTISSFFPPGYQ

| Binder | He/Con_3a |
| --- | --- |
| B1 | 104 % of control |
| B2 | 111 % of control |
| B3 | 101 % of control |

Target: T1, FcγRIIa R (human FcγRIIa, allotype R, …)
Test: SPR (Biacore), relative binding vs GpH7-B3/GpL16-k0
Experimental: as §1, §2

| Binder | Ho/Con_2aR |
| --- | --- |
| B4 | 88.1 relative, control = 100 |
| B5 | 90.3 relative, control = 100 |
| B6 | 89.5 relative, control = 100 |
| B7 | 93.7 relative, control = 100 |
| B8 | 88.9 relative, control = 100 |
| B9 | 107 relative, control = 100 |
| B10 | 87.6 relative, control = 100 |
